Numbering of substitutions follows the chain as printed.
B1: ePGDM5 (antibody, V domains shown)
VH: QAQLVQSGPEVRKPGTSVKVSCKNPGNTLTTYDLHWVRQVPGQGLQWMGWISHEGDKKVIVERFKAKVTIDWDRSTNTAYLQLSGLTSEDTAVYYCAKGSKHRLRDYALYDEDGALNWAVDVDYLANLEFWGQGTAVTVSS
VL: DFVLTQSPLSLSVTPGESASISCKSDHSLQHGDRNNYLAWYVQKPGRSPQLLIDLASERASGVPDRFSGSGSRKDFTLKIDRVEAEDVGTYYCMQGRESPWTFGQGTKVDIK
B2: ePGDM9 (antibody, V domains shown)
VH: B1 VH
VL: B1 VL with F2I, D26S, H27Q, Q30I, D81S, A85T

target: HIV Env of isolate T257-31 (clade AG) (HIV); test: cell-based or functional assay

Binder | IC50 (µg/ml) with constrains | IC80 (µg/ml) with constrains
B1 | 0.016 µg/mL | 0.064 µg/mL
B2 | 0.019 µg/mL | 0.076 µg/mL

target: HIV Env of isolate ZM53M.PB12 (clade C) (HIV); test: cell-based or functional assay

Binder | IC50 (µg/ml) with constrains
B1 | 0.005 µg/mL
B2 | 0.006 µg/mL

target: HIV Env of isolate 620345.c01 (clade AE) (HIV); test: cell-based or functional assay

Binder | IC50 (µg/ml) with constrains | IC80 (µg/ml) with constrains
B1 | > 100 µg/mL | > 100 µg/mL
B2 | > 100 µg/mL | > 100 µg/mL

target: HIV Env of isolate T235-47 (clade AG) (HIV); test: cell-based or functional assay

Binder | IC50 (µg/ml) with constrains | IC80 (µg/ml) with constrains
B1 | 0.005 µg/mL | 0.022 µg/mL
B2 | 0.004 µg/mL | 0.017 µg/mL

target: HIV Env of isolate RHPA4259.7 (clade B) (HIV); test: cell-based or functional assay

Binder | IC50 (µg/ml) with constrains
B1 | 0.464 µg/mL
B2 | 0.145 µg/mL

target: HIV Env of isolate 89-F1_2_25 (clade CD) (HIV); test: cell-based or functional assay

Binder | IC50 (µg/ml) with constrains
B1 | 0.001 µg/mL
B2 | 0.001 µg/mL

target: HIV Env of isolate 1006_11_C3_1601 (clade B) (HIV); test: cell-based or functional assay

Binder | IC50 (µg/ml) with constrains
B1 | 0.473 µg/mL
B2 | 0.588 µg/mL

target: HIV Env of isolate 0260.v5.c36 (clade A) (HIV); test: cell-based or functional assay

Binder | IC50 (µg/ml) with constrains | IC80 (µg/ml) with constrains
B1 | 0.021 µg/mL | 0.084 µg/mL
B2 | 0.018 µg/mL | 0.073 µg/mL

target: HIV Env of isolate ZM233M.PB6 (clade C) (HIV); test: cell-based or functional assay

Binder | IC50 (µg/ml) with constrains
B1 | 0.002 µg/mL
B2 | 0.002 µg/mL

target: HIV Env of isolate BJOX015000.11.5 (clade AE) (HIV); test: cell-based or functional assay

Binder | IC50 (µg/ml) with constrains | IC80 (µg/ml) with constrains
B1 | 1.1 µg/mL | 4.39 µg/mL
B2 | 0.958 µg/mL | 3.83 µg/mL

target: HIV Env of isolate QH0692.42 (clade B) (HIV); test: cell-based or functional assay

Binder | IC50 (µg/ml) with constrains
B1 | > 100 µg/mL
B2 | > 100 µg/mL

target: HIV Env of isolate C3347.c11 (clade AE) (HIV); test: cell-based or functional assay

Binder | IC50 (µg/ml) with constrains | IC80 (µg/ml) with constrains
B1 | 0.005 µg/mL | 0.021 µg/mL
B2 | 0.003 µg/mL | 0.011 µg/mL

target: HIV Env of isolate 928-28 (clade AG) (HIV); test: cell-based or functional assay

Binder | IC50 (µg/ml) with constrains | IC80 (µg/ml) with constrains
B1 | 0.031 µg/mL | 0.125 µg/mL
B2 | 0.027 µg/mL | 0.108 µg/mL

target: HIV Env of isolate 3103.v3.c10 (clade ACD) (HIV); test: cell-based or functional assay

Binder | IC50 (µg/ml) with constrains | IC80 (µg/ml) with constrains
B1 | 0.063 µg/mL | 0.254 µg/mL
B2 | 0.073 µg/mL | 0.29 µg/mL

target: HIV Env of isolate SC05_8C11_2344 (clade B) (HIV); test: cell-based or functional assay

Binder | IC50 (µg/ml) with constrains
B1 | 3.62 µg/mL
B2 | 1.06 µg/mL

target: HIV Env of isolate ZM249M.PL1 (clade C) (HIV); test: cell-based or functional assay

Binder | IC50 (µg/ml) with constrains
B1 | 0.035 µg/mL
B2 | 0.002 µg/mL

target: HIV Env of isolate HIV-16055-2.3 (clade C) (HIV); test: cell-based or functional assay

Binder | IC50 (µg/ml) with constrains
B1 | 0.002 µg/mL
B2 | 0.001 µg/mL

target: HIV Env of isolate 246FC1G (clade C) (HIV); test: cell-based or functional assay

Binder | IC50 (µg/ml) with constrains
B1 | > 100 µg/mL
B2 | > 100 µg/mL

target: HIV Env of isolate CNE5 (clade AE) (HIV); test: cell-based or functional assay

Binder | IC50 (µg/ml) with constrains | IC80 (µg/ml) with constrains
B1 | 0.001 µg/mL | 0.004 µg/mL
B2 | 0.001 µg/mL | 0.003 µg/mL

target: HIV Env of isolate Ce703010054_2A2 (clade C) (HIV); test: cell-based or functional assay

Binder | IC50 (µg/ml) with constrains
B1 | 0.008 µg/mL
B2 | 0.008 µg/mL

target: HIV Env of isolate BJOX010000.06.2 (clade AE) (HIV); test: cell-based or functional assay

Binder | IC50 (µg/ml) with constrains | IC80 (µg/ml) with constrains
B1 | 0.536 µg/mL | 2.15 µg/mL
B2 | 0.293 µg/mL | 1.17 µg/mL

target: HIV Env of isolate C1080.c03 (clade AE) (HIV); test: cell-based or functional assay

Binder | IC50 (µg/ml) with constrains | IC80 (µg/ml) with constrains
B1 | 0.003 µg/mL | 0.011 µg/mL
B2 | 0.001 µg/mL | 0.004 µg/mL

target: HIV Env of isolate T211-9 (clade AG) (HIV); test: cell-based or functional assay

Binder | IC50 (µg/ml) with constrains | IC80 (µg/ml) with constrains
B1 | 0.025 µg/mL | 0.099 µg/mL
B2 | 0.02 µg/mL | 0.081 µg/mL

target: HIV Env of isolate CNE52 (clade BC) (HIV); test: cell-based or functional assay

Binder | IC50 (µg/ml) with constrains
B1 | 6.14 µg/mL
B2 | 1.85 µg/mL

target: HIV Env of isolate Q259.d2.17 (clade A) (HIV); test: cell-based or functional assay

Binder | IC50 (µg/ml) with constrains | IC80 (µg/ml) with constrains
B1 | 0.013 µg/mL | 0.051 µg/mL
B2 | 0.012 µg/mL | 0.048 µg/mL

target: HIV Env of isolate ZM109F.PB4 (clade C) (HIV); test: cell-based or functional assay

Binder | IC50 (µg/ml) with constrains
B1 | 0.03 µg/mL
B2 | 0.027 µg/mL

target: HIV Env of isolate T255-34 (clade AG) (HIV); test: cell-based or functional assay

Binder | IC50 (µg/ml) with constrains | IC80 (µg/ml) with constrains
B1 | 0.018 µg/mL | 0.071 µg/mL
B2 | 0.002 µg/mL | 0.008 µg/mL

target: HIV Env of isolate ZM135M.PL10a (clade C) (HIV); test: cell-based or functional assay

Binder | IC50 (µg/ml) with constrains
B1 | > 100 µg/mL
B2 | > 100 µg/mL

target: HIV Env of isolate 6480.v4.c25 (clade CD) (HIV); test: cell-based or functional assay

Binder | IC50 (µg/ml) with constrains
B1 | > 100 µg/mL
B2 | > 100 µg/mL

target: HIV Env of isolate ZM214M.PL15 (clade C) (HIV); test: cell-based or functional assay

Binder | IC50 (µg/ml) with constrains
B1 | > 100 µg/mL
B2 | > 100 µg/mL

Reference: patent publication US20230134571A1 (INTERNATIONAL AIDS VACCINE INITIATIVE, published 2023)
